This passage reports helicity results from article PMC9951308.

Starred links: 1 amine or outer side, 2 acyl side, 3 side chain; linkers in the order of their positions; H or OH if unused. Positions of bridges follow the written chain, without caps; N, C: chain ends. Residues, ends and D or L forms follow the SMILES beside them. TBMB = c1c(C[*:1])cc(C[*:3])cc1C[*:2]; mXylylene = c1cc(C[*:1])cc(C[*:2])c1

This data set is described as follows: circular dichroism. The following applies: PBS 10 mM; pH 7.4; 25 °C; 10 uM. (Circular dichroism is the unequal absorption of left and right circularly polarised light.)
For the compound `CC(=O)N[C@@H](C)C(=O)N[C@@H](C)C(=O)N[C@@H](C)C(=O)N[C@@H](C)C(=O)N[C@@H](CCCCN)C(=O)N[C@@H](C)C(=O)N[C@@H](C)C(=O)N[C@@H](C)C(=O)N[C@@H](C)C(=O)N[C@@H](CCCCN)C(=O)N[C@@H](Cc1c[nH]c2ccccc12)C(=O)N[C@H]1CSCc2cc3cc(c2)CSC[C@H](NC(=O)[C@H](C)NC(=O)[C@H](C)NC1=O)C(=O)N[C@@H](C)C(=O)N[C@H](C(N)=O)CSC3` (Ac-AAAAKAAAAKWCAACAC-NH2; linker 12-15-17 via TBMB), the helicity came out at 33%. Then `CC(=O)N[C@@H](C)C(=O)N[C@@H](C)C(=O)N[C@@H](C)C(=O)N[C@@H](C)C(=O)N[C@@H](CCCCN)C(=O)N[C@@H](C)C(=O)N[C@@H](C)C(=O)N[C@@H](C)C(=O)N[C@@H](C)C(=O)N[C@@H](CCCCN)C(=O)N[C@@H](Cc1c[nH]c2ccccc12)C(=O)N[C@H]1CSCc2cc3cc(c2)CSC[C@H](NC(=O)[C@H](C)NC(=O)[C@H](C)NC1=O)C(=O)NCC(=O)N[C@H](C(N)=O)CSC3` (Ac-AAAAKAAAAKWCAACGC-NH2; linker 12-15-17 via TBMB), with 65%. With `CC(=O)N[C@@H](C)C(=O)N[C@@H](C)C(=O)N[C@@H](C)C(=O)N[C@@H](C)C(=O)N[C@@H](CCCCN)C(=O)N[C@@H](Cc1c[nH]c2ccccc12)C(=O)N[C@H]1CSCc2cccc(c2)CSC[C@@H](C(N)=O)NC(=O)CNC(=O)[C@H](C)NC(=O)[C@H](C)NC(=O)[C@H](C)NC1=O` (Ac-AAAAKWCAAAGC-NH2; linker 7-12 via mXylylene), the helicity worked out at 34%. Then `CC(=O)N[C@@H](C)C(=O)N[C@@H](C)C(=O)N[C@@H](C)C(=O)N[C@@H](C)C(=O)N[C@@H](CCCCN)C(=O)N[C@@H](Cc1c[nH]c2ccccc12)C(=O)N[C@H]1CSCc2cccc(c2)CSC[C@@H](C(=O)NCC(=O)N[C@@H](C)C(N)=O)NC(=O)[C@H](C)NC(=O)[C@H](C)NC1=O` (Ac-AAAAKWCAACGA-NH2; linker 7-10 via mXylylene), with 33%; and `CC(=O)N[C@@H](C)C(=O)N[C@@H](C)C(=O)N[C@@H](C)C(=O)N[C@@H](C)C(=O)N[C@@H](CCCCN)C(=O)N[C@@H](Cc1c[nH]c2ccccc12)C(=O)N[C@H]1CSCc2cc3cc(c2)CSC[C@H](NC(=O)[C@H](C)NC(=O)[C@H](C)NC1=O)C(=O)NCC(=O)N[C@H](C(N)=O)CSC3` (Ac-AAAAKWCAACGC-NH2; linker 7-10-12 via TBMB), with 59%. Then `CC[C@H](C)[C@@H]1NC(=O)[C@@H](NC(=O)[C@H](C)NC(=O)[C@H](CC(C)C)NC(=O)[C@H](CCC(N)=O)NC(=O)[C@H](CCCNC(=N)N)NC(=O)[C@H](C)NC(=O)[C@@H](NC(=O)[C@H](CCC(N)=O)NC(C)=O)C(C)C)CSCc2cc3cc(c2)CSC[C@H](NC(=O)[C@H](Cc2ccc(O)cc2)NC1=O)C(=O)NCC(=O)N[C@H](C(N)=O)CSC3` (Ac-QVARQLACIYCGC-NH2; linker 8-11-13 via TBMB), with 38%. Under `CC[C@H](C)[C@H](NC(=O)[C@H](CCCNC(=N)N)NC(C)=O)C(=O)N[C@@H](C)C(=O)N[C@@H](CCCNC(=N)N)C(=O)N[C@@H](CC(C)C)C(=O)N[C@@H](CCC(=O)O)C(=O)N[C@@H](CCC(=O)O)C(=O)N[C@H]1CSCc2cc3cc(c2)CSC[C@H](NC(=O)[C@H](CCCCN)NC(=O)[C@H](Cc2ccc(O)cc2)NC1=O)C(=O)NCC(=O)N[C@H](C(N)=O)CSC3` (Ac-RIARLEECYKCGC-NH2; linker 8-11-13 via TBMB) stands 48%.

For Ac-AAAAKAAAAKAAAAKAW-NH2, the helicity was determined as 48%. Then Ac-AAAAKAAAAKAW-NH2, with 17%; and Ac-QVARQLAEIY-NH2, with 8%; and Ac-RIARLEEKYK-NH2, with 17%. Under Ac-WAAAKAAAAKALAAIGV-NH2 stands 37%.

Ac-WAAAKAAAAKALAALGF-NH2 yielded a helicity of 38%. Under Ac-WAAAKAAAAKALAALGI-NH2 stands 52%; under Ac-WAAAKAAAAKALAALGL-NH2, 54%. Then Ac-WAAAKAAAAKALAALGV-NH2, with 44%. Under Ac-WAAAKAAAAKALAALGW-NH2 stands 44%; under Ac-WAAAKAAAAKALAALGY-NH2, 45%.
